The target in data set [1] is T1, MDM2 (Homo sapiens, UniProt Q00987 Q00987:1-491). The data set is described as follows: pulldown; NCL present; iSN04 blocks NCL-MDM2 interaction. As to conditions: tags: R&D Systems E3-202-050; label: 5'-biotin; weak G4 only with K+. On the procedure: (§1) 6 μg/mL recombinant human NCL and 6 μg/mL recombinant human MDM2 were mixed well and incubated at 4° C. for 7 h. Subsequently, 400 nM CRO, AS1411, or iSN04 labeled by biotin at the 5′ end was added, and the mixture was incubated at 4° C. for 6 h. Streptavidin agarose gel beads (purchased from cytiva, Cat. No.: 17511301) were added, and the mixture was further incubated at 4° C. overnight. The gel beads were washed 4 times with a TBST buffer, and an SDS-PAGE protein loading buffer (purchased from Beyotime, Cat. No.: P0015) was added. The mixture was heated to 100° C. and held for 10 min. After centrifugation, the supernatant was collected. The pull-down product was then detected by western blot assay.

For the next data set, the target named is Nucleolin (NCL) (Homo sapiens, UniProt P19338 P19338:2-710). The data set is described as follows: pulldown; 400 nM oligo, with MDM2, 4 C. As to conditions: tags: ACROBiosystems NUL-H5253, label: 5'-biotin. On the procedure: as §1
The target of data set [2] is T1, MDM2. The data set is described as follows: pulldown; NCL present. As to conditions: tags: R&D Systems E3-202-050; label: 5'-biotin. On the procedure:
as §1

T1 sequence (Q00987 whole entry, one chain of several): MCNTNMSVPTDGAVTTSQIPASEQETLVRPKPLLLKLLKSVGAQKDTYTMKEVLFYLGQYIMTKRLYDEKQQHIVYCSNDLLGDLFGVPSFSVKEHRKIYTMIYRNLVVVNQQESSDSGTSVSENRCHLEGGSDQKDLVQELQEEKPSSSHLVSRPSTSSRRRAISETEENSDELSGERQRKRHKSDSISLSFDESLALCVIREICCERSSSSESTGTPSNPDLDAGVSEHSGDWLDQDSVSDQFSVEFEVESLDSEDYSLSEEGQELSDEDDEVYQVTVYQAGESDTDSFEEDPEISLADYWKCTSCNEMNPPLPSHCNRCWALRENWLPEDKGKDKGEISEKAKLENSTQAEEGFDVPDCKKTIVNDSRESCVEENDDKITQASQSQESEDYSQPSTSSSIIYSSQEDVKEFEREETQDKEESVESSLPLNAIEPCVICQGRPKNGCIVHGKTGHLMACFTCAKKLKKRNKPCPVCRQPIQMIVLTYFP
Sequence of Nucleolin (NCL) (P19338 2-710, one chain of several): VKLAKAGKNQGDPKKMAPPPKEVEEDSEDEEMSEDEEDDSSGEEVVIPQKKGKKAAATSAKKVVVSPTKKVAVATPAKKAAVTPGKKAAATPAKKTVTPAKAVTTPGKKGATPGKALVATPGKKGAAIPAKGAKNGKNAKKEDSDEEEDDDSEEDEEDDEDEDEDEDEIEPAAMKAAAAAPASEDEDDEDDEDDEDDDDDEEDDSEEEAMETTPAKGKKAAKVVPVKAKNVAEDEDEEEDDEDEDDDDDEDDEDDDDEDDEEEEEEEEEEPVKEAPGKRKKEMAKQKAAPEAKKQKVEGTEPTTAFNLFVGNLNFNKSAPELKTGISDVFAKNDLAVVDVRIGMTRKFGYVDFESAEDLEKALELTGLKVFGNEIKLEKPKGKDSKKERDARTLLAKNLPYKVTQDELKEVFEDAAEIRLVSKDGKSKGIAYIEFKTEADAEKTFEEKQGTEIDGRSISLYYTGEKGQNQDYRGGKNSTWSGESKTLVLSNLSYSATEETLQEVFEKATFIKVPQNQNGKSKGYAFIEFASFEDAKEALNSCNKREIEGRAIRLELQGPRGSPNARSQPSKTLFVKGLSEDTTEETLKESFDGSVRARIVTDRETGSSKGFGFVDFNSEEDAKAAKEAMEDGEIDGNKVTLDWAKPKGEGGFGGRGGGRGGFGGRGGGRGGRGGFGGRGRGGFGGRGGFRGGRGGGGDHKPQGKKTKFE

With AGATTAGGGTGAGGGTGA (ssDNA) [iSN04], the binding result in the data set with MDM2 [1] was “no binding”; in the data set with Nucleolin (NCL) (weak G4 only with K+), “binds”.
In the case of CCTCCTCCTCCTTCTCCTCCTCCTCC (ssDNA) [CRO], the binding result in the data set with Nucleolin (NCL) and with MDM2 [2] was “no binding” throughout.
